The data set in a line: soluble fraction after stress (log2 fold change); higher = more stays soluble; pooled small domains, quantitative proteomics. Particulars: stress: 75 degC.
Turning to “HMATYETEVISGVNLRSAPNTSASVYRLLSKGEDIHVIQKVNDYWLKVQTKDGKIGYISASSKYTNYIA”, the “soluble fraction (log2)” value was -1.52. On to “HMAVEETFTITWLDRDGTVLEVDENVLKGTMPSFDGHIPPHDGLEFKGWDPEVVPVEGDATYTATYKA”, for which the “soluble fraction (log2)” value was 0.508.

Turning to “HMAVENTGLSKRELEILQMMARGMSNQEIGDALFISLSTVKTHVASIFSKLQAVRRTQAVGIAKSLKII”, the “soluble fraction (log2)” value is -2.91.

Consider “HMAVFSKKQIFDTAFALFESKGLEAITARNLGKALSSSPAPIYAHYSSITELKNELISVAKDR”, for which the “soluble fraction (log2)” value was -3.06.

On to “HMAVGDMISKLRTAANMSQEQFAELFGVTRQSVQKWENSFSVPELEKLIKISKYFDVSLDALVLRSDARVT”, for which the “soluble fraction (log2)” value is -2.5. With “HMAVLFFVKRGERILGPTRLADLFQHAASGRLRANDLVGESPKGPWLPARQLDELEDAWASSRDATEAAAA”, the “soluble fraction (log2)” value was -0.817.

On to “HMAVNQEFKNTINRIKYEYSLNQSQIADRLGVKKTYLSDMINGRVPYNETMNKKVNDVFPLPP”, for which the “soluble fraction (log2)” value is -0.169. On to “HMAVPTHVEFPVVGLQRSGITSLEQAIATVPGVSKAVVNVSDNRIFVDYDPTRSKVSDLLEVVRGAGFTP”, for which the “soluble fraction (log2)” value was -0.043. Consider “HMAVQAESDIIKRAALLRNLGNTSMQLKNIDQAIDFYKQGIKLHPEDAELKYNLSQALRQKSQSNN”, for which the “soluble fraction (log2)” value was 0.055. The result for “HMAVQEDAGLAREDLPPEVQGLLQEREAARAAKDWGKSDALRRQLQDLGYAIKDTAQGMEIKRT” reads 0.817. For the sequence “HMAVRNTKQKQLVLSLLKNSGRPMTAGEIYRLAVQQYPNIAKSTVYRNLENLVSRGEVSQGMHQNGESFYS”, the “soluble fraction (log2)” value was -0.697.

Take “HMAVSPEEQKKRIIELFRNRNEVSFKEIFDLPTKGHFVITLLAVLDLARQQIVIMEQLENEGIIKFTKGA”: the “soluble fraction (log2)” value is 0.134.

With “HMAVSSHAVKQRIRSLIQAEDPAAPLSDEALRLALSALGVDVSRRVIAKYRAELNIPSSSQRKK”, the “soluble fraction (log2)” value is -0.823. As to “HMAVSVPDVMGLTYEEAYNKITAEGLLVNRLESYTGLVEKGRVISQLPVGGEPAAKGSTVNVNVSL”, the “soluble fraction (log2)” value was 0.466. Consider “HMAVTFPYTAYATDAVRLRERPSSSADVLAVIRKGDAVLVTGTDGNYAIVDYEGKRGYVVSSFIAT”, for which the “soluble fraction (log2)” value was -0.522. With “HMAVWRIKVNYIPGYGVNIWSSYKNGHFTGKRAMHGETYEVLETKKDQDGNTWYKLDDHQWIEGRYAINAK”, the “soluble fraction (log2)” value was -2.45. For the sequence “HMAYMETIERVEALAPGTKFNLKALFGTDWTQSRGTKLTLGKTFYEMVESGYVKTAKVLGKDSSNIMQYER”, the “soluble fraction (log2)” value worked out at 0.0793.

Regarding “HMAYSEEERNLIRSRLKDVAAALFKEKGIRDTNIDEIYTPVGISKTFFYSFFPSKAVLAIAIMK”, the “soluble fraction (log2)” value was -0.248. The result for “HMAYVDWYENKQPTHEEAFKKLLGRIHPGAIVLLHSTSKTNGEILDELLTKWEEMGYRFGTLDELTGN” reads -1.58; that for “HMDAATDAIKAEVRALLEMANAQGIDTESIMLEAHEQTRNATEQDYYEAAKSALEAAIAGSNRDR”, 0.435; that for “HMDADGEPIKLDQIGISHLSFTVADVKSLGEELVAKGVKLAAPMEAFTSPEGRISSIFVYDPDGILLQFDD”, 0.136. On to “HMDADRLSPREREMLQFIARGQSNKEIARALELAESTVKIHVQNMLRKLNLSSRVQAAVFAVENGLG”, for which the “soluble fraction (log2)” value is -1.59. Consider “HMDAGLAEIIRSFEDNLGGFPPAAREDLLGWREIFTDDLILLAIKKAALAGVRKWSYVNGILKVWKNEGVR”, for which the “soluble fraction (log2)” value is -2.23. Regarding “HMDAHYMEMKGKTGTAFTMLRPAGKIDIEGQIFDAVAEAGFIEKGEAIRVVKYENAQLIVRK”, the “soluble fraction (log2)” value is -0.446. Consider “HMDAIAYLGSRLKEIRLKSGLSLREIARQLDVSPSFISQIENGKSQPSVATLYAFAKLLNVPVDVLFQPS”, for which the “soluble fraction (log2)” value is -2.59. With “HMDAKNNPQVMAQIRAILTAKGLSEDEVKTRLKTKNIDVDKMTDQEIIAQRPAIEAIINEMEQEKKQKMG”, the “soluble fraction (log2)” value worked out at 0.0493.

Take “HMDALPLIQLEKEIKDFISQGQKINAIKHYRNVMDRDFGTTISLKLAKYTVDALAQNIKVDLTKGYDQ”: the “soluble fraction (log2)” value was -1.01. As to “HMDALTLSIDAQGALYWNGQPVSRELAAQRFVEAAAQRPQPELHLRADQNVAYRHVAMTLADASRAGLTR”, the “soluble fraction (log2)” value is -0.248.

“HMDANAYTYKVSEDTDTRTGEKIFLVKVAEKLSRKEYIVVNNYMKSLGSYYSKFKHAFLFKENPTEKL”: the “soluble fraction (log2)” value is -0.55. Regarding “HMDANLGEIFKVYEQEIGALTPFVREEMLDAIDHYPRDWILDAIRESAKSNARNWKYTLAILKRWKAEG”, the “soluble fraction (log2)” value was -0.284. With “HMDAPIIRLLNSLVQRAVTTTASDIHIEPFEGETKVRMRIDGVIIDYVTLQRALHQPLIARIKIMSNLD”, the “soluble fraction (log2)” value was -0.15. For the sequence “HMDAPKTGSLVVSKAVNYGSWSGFTFRLHGTSDKGNSVDVTATTGSDGKAYFKDIEIGTYTLEEVN”, the “soluble fraction (log2)” value was -0.406. As to “HMDAQEAAWARKMMETLPEKQKLSVALRIEEGLSFKEIGEIIGSSEGAARVNYFHGIRRLRELL”, the “soluble fraction (log2)” value was -0.789.

For the sequence “HMDAQNLQDQLFGFLKANPTQAYPAQTLADGLRLDDANAFTKVVQALAALERGGKVKVNEEGAFQYDAEK”, the “soluble fraction (log2)” value is 0.43.

Take “HMDARSTHIAAIHVLKSKLQLQDSDYRALLLTLTGQTSSKDLSEHQRRAVRNHMQQLAERMGVVQ”: the “soluble fraction (log2)” value was -1.46.

Turning to “HMDATFKVRVSVPDLNIRSGPGTNYAATGRFTGVGVFTITAVQSGQGSSSGWGKLKSGAGWIALDYAKR”, the “soluble fraction (log2)” value is -3.78. With “HMDATIGGFKITDSAIYSGVKNNVNAGVRGTYIDKDGQIAFGDSNSYLKYYKDTDGKWKLEVSASSVKF”, the “soluble fraction (log2)” value came out at 0.454. Consider “HMDAVDKDGNHMTFKKWSEQLQEAFHALELYDTTRAKQILSELVKFQVDSDITKSLKAIITNIDDMMA”, for which the “soluble fraction (log2)” value was -1.13. Consider “HMDAYDEVTTLSQMVASGKNTTVAHLKHLKEYHQTDYLRQAVEWLLSNRKNVSFSVDEVMQEVHN”, for which the “soluble fraction (log2)” value is -0.0471.

For the sequence “HMDAYLPETVQKLLDVMDFDVPYSAAQLMEKLGLKSRASFRKLYLLPALEKNLIAMGVPDKPTSRNQTYIR”, the “soluble fraction (log2)” value is -0.787.

As to “HMDAYSYFIRTYPLVDDPLIGDIRRIFAETHDGNPAGDADVRHILWRLLFERELYPTLDEATADWY”, the “soluble fraction (log2)” value was -2.39. In the case of “HMDDEAVQIMTLHISKGLEFDVVFALGLVSRTPESKEIEELEAEKQRQLYVAMTRAEKWLIVAA”, the “soluble fraction (log2)” value turned out to be 0.202.

As for “HMDDEDLAFLQREFVSYQQAMDYYGLGYKPVVRLSHISGSVYKIGKKVLIRRNIFEEYLRNHV”, the “soluble fraction (log2)” value stood at 0.0397. The result for “HMDDFGERLRKLRVAQDLTQQQLGEKLGVVPSTIGKYEKVKDSYPSIEVLIKLSDFFSVSTDYLLKG” reads -2.19; that for “HMDDFTEVLLQYLKDHDGYSSIHDKTDAETIYNTFGVSKKTFKKAVGDLYKKRLIVLEEEGIRLLG”, -0.151. As to “HMDDISLEEIKYISSKLETKVNEIEELLVRYYDGETNEAEEKELKEFFAQADVPAHLLAEKRLFMQLASQ”, the “soluble fraction (log2)” value was 0.245. Take “HMDDKVGKVFNYVQEKILTGEWDIGDKITPEISLSKELGVSRSVVREAIKKFVALNILSRTQGGGTYVNNL”: the “soluble fraction (log2)” value is -0.848. Regarding “HMDDNMNEQWKMILNSIAKKGSVTRQETEKILGIGQTRAHVLLKAMIHAGMIKAVGDGKKRRYVR”, the “soluble fraction (log2)” value was -2.28. The result for “HMDDNRSLSDLAQQVFKRENIQVSRDTLSLLVSRLGSDRAVSRQEIEKLALFAGSNGKLTEEDIHNALG” reads 0.0459; that for “HMDDPISSMVNRIRLAFGLSVTDLAAVLGVERPTIYSWLKDGSTPAPARLTRVRQVLSLADTW”, -0.729; that for “HMDDPITVAYRETEDAIAQVQREGFPVEMPPANSYIRRIQHELAGRFNLDSESYGDEPERRVRIRPQQ”, -0.107.

Take “HMDDPTVILFDPKNGQRKIVKWKAGLTLYSARRSAGISSAAEATIQRAGKSLSGRTATALEPGDVIRW”: the “soluble fraction (log2)” value is -1.74. Regarding “HMDDSSLFGRHTGIGFIVDDIDSGYQTLLAKGVSFEMPPTEQPWGGILALMKDPDGNIFYLD”, the “soluble fraction (log2)” value is -0.0389. For “HMDDTRLLSEIGLSQRVLNALRARGIERVGQVLAMRPDQLLGIRNFGPRALQELRERLQENGYTEGPLFSG”, the “soluble fraction (log2)” value stood at 0.379. With “HMDDVIDVYATYDVSPTNQISNIKLYSDAAHANPVTGEAGKSYNDITEGHPGYQFRWSGTTWVPI” the figure was -1.04. For the sequence “HMDDVIEVEGKVVEVLPNTKFIVELANSHKITAHISGKLRMNYIRIMKGDNVTVEMSPYDLTKGRIIWRS”, the “soluble fraction (log2)” value is -0.165. Consider “HMDDVVVLPFTAEFARMSSDDFVREILVGKIGMKRFVVGYNHRFGSGQQGDFASLQRMQGELGFVAVRVG”, for which the “soluble fraction (log2)” value came to 0.368. “HMDDVYMVPVKDIAINDLKQEFEKLGIPNIQNTIPDKDLNFFIVRKDDLALVNYAIEKTMER”: the “soluble fraction (log2)” value turned out to be 0.0193. As to “HMDEAETELIRRMVSEHPPTTKRERDIVQMRLRGYLFVEIGEAYGISFQRAAQIYNAAVEKIKEYWD”, the “soluble fraction (log2)” value is -0.242. Take “HMDEEQIASRRALIMRAAREIMETQGMEALSIRKIAAMIQQTPGIIYHYFSGKEELMLAVVQEGYH”: the “soluble fraction (log2)” value is -0.00144. With “HMDEFAGSAKPLADGAAPAGYDVKGNKDSMKYHEPGGRWYDATVAEVWFKTAADAEAAGFVKAGA” the figure was 0.167.

For “HMDEFHLSERERQILNLLVLGHTYKHIASDLNIAYATVNKHVSNVYAKLRVQSASEAVALAIRKGL”, the “soluble fraction (log2)” value is -0.992. As to “HMDEFTIILEDAGSQKIAVIKEVRVLNSSLGLKEAKDLVDATPATIMEKADKATADKAKAAFEAAGAKVTI”, the “soluble fraction (log2)” value is -0.257. “HMDEIDYSKYSITTSNRIINIDGVQSKVELFDVSGRSIQSTMVTGKFSSRPLNAGFYIIHVDGYSVKVSV”: the “soluble fraction (log2)” value was -1.19. Regarding “HMDELIKQVANYIINNRATINETAGAFGKSVSSIKKYINDADKLQRIDFELYQKVKEVQKIVELNGQI”, the “soluble fraction (log2)” value was -0.396. As to “HMDEMEFQKYVDQNLKQKGISLTAEAKAELLLRLGGDTMLLHSAIEKLDLYGEKNLNLNDIKHLVSLNSDV”, the “soluble fraction (log2)” value came out at 0.254. Regarding “HMDENMQRYNTMEEIKKEFPYAEDTVRKLIAMGAIRGGGKVDANGDPADMDLSRDMLRMMVFNDRAGAYG”, the “soluble fraction (log2)” value came out at 0.524.

Take “HMDEPGTGFKWREDVLLRVMEANGIDTSHRDDFVRHAVKFDNDDNLYLKKAEIEDAAAAWVSEHS”: the “soluble fraction (log2)” value was 0.161.

With “HMDERLAKLTPQERKILDLIAEGATNRQIGTELHLAEKTVKNYVSNMLMKLGMSRRTEAAVFAVKASIN”, the “soluble fraction (log2)” value is -1.9. Turning to “HMDERLLRLYERELQFLREGADEFAQAYPKVAGHLGLNSQSMGDPFIERLLEGLGFLTARIQLQLESEF”, the “soluble fraction (log2)” value is -0.47.

The values above are taken from the domain aggregation screens of Martell et al. (2025).
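Note: 20 min heating vs room temperature control held 20 min.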
